This is an account of results in article PMC3904261 (British Journal of Pharmacology, 2013).

The target in assay [1] is T1, AMY1(a) receptor (Homo sapiens, UniProt O60894+P30988).
T1 construct: HA; expressed in transfected cells; host or cells: Cos 7
Put plainly: cAMP production in Cos 7 cells via the AMY1(a) receptor. Format: cell-based. The following applies: AlphaScreen, means ± SEM. As to the method:
SK-N-MC cells were grown in DMEM/F12 medium supplemented with 10% fetal calf serum as described previously (Poyner et al., [1998]). […] Production of cAMP in SK-N-MC cells for all analogues except [[…]]-hαCGRP was by a radioreceptor assay, as described previously (Poyner et al., [1998]). […] For [[…]]-hαCGRP, a different clone of SK-N-MC cells was used and cAMP production was measured via AlphaScreen (Perkin Elmer, Wellesley, MA, USA), as described previously ([…] et al., [2010]). This assay was also used to investigate the action of all derivatives at the AMY1(a) receptor and other experiments using Cos 7 cells. […] GraphPad Prism 5.00 or 6.00 (GraphPad Software Inc., San Diego, CA, USA) was used for data fitting. Concentration-response curves were fitted to a sigmoidal function with Hill slope constrained to unity to obtain pEC50 and maximum responses (Emax) values. Displacement curves were analysed to obtain pIC50 values. Schild plots were fitted by linear regression to obtain slope and intercepts. pEC50 and pIC50 values were compared with that of human αCGRP using Dunnett's test with either a normal or repeated measures one-way ANOVA, as appropriate.
(In general: cAMP levels reflect the balance of adenylyl cyclase and phosphodiesterase activity.)

Assay [2] addresses T2, CGRP receptor (Homo sapiens, UniProt O60894+Q16602). Put plainly: cAMP production in SK-N-MC cells. The class given is cell-based. Set-up: relative expression levels of the receptors (endogenous vs. overexpressed); endogenous in cells; host or cells: SK-N-MC cells (ECACC clone; ATCC clone for [Cys5]-CGRP). The following applies: for cAMP (SK-N-MC) Emax (% CGRP) CGRP analogue: radioreceptor assay, approx. 10 min, means ± SEM, n = 3–6. As to the method:
Production of cAMP in SK-N-MC cells for all analogues except [[…]]-hαCGRP was by a radioreceptor assay, as described previously (Poyner et al., [1998]). […] For [[…]]-hαCGRP, a different clone of SK-N-MC cells was used and cAMP production was measured via AlphaScreen (Perkin Elmer, Wellesley, MA, USA), as described previously ([…] et al., [2010]). This assay was also used to investigate the action of all derivatives at the AMY1(a) receptor and other experiments using Cos 7 cells. […] GraphPad Prism 5.00 or 6.00 (GraphPad Software Inc., San Diego, CA, USA) was used for data fitting. Concentration-response curves were fitted to a sigmoidal function with Hill slope constrained to unity to obtain pEC50 and maximum responses (Emax) values. Displacement curves were analysed to obtain pIC50 values. Schild plots were fitted by linear regression to obtain slope and intercepts. pEC50 and pIC50 values were compared with that of human αCGRP using Dunnett's test with either a normal or repeated measures one-way ANOVA, as appropriate.

Assay [3] has as its target T2, CGRP receptor. Put plainly: β-arrestin 2 translocation in CHO-K1 cells (PathHunter eXpress). The class given is cell-based. Set-up: host or cells: CHO-K1 (PathHunter eXpress β-arrestin kit). The following applies: for β-Arrestin (CHO-K1) Emax (% CGRP) CGRP analogue: 2 h stimulation, means ± SEM, n = 3; for reduction of Emax, β-arrestin 2 translocation: CHO-K1 cells, compared with CGRP. As to the method: GraphPad Prism 5.00 or 6.00 (GraphPad Software Inc., San Diego, CA, USA) was used for data fitting. Concentration–response curves were fitted to a sigmoidal function with Hill slope constrained to unity to obtain pEC50 and maximum responses (Emax) values. Displacement curves were analysed to obtain pIC50 values. Schild plots were fitted by linear regression to obtain slope and intercepts. pEC50 and pIC50 values were compared with that of human αCGRP using Dunnett's test with either a normal or repeated measures one-way ANOVA, as appropriate.

Assay [4] has as its target T3, CGRP receptor (calcitonin receptor-like receptor in complex with receptor activity-modifying protein 1) (human (endogenous in SK-N-MC), UniProt Q16602 23-461; O60894 27-148). Put plainly: cell-based or functional assay.
Assay [5] has as its target AMY_(1(a)) receptor (human HA-tagged CT (a) receptor with human myc-tagged RAMP1) (human) (UniProt O60894).
In assay [6] the target is T3, CGRP receptor (calcitonin receptor-like …). Put plainly: radioligand binding; displacement of ^125I-CGRP from SK-N-MC cell membranes by unlabelled peptides, microcentrifugation-based binding assay; [Cys^5]-CGRP and its control on another batch of SK-N-MC cells. The following applies: one partner purified.

Several values for one entry are separate records, joined by “and”; a condition that tells them apart may be missing. Equal values may be shown once. Bridge positions count the residues as written; N and C are the ends. Ends that are not written are not given here.

T1 sequence (P30988 25-474): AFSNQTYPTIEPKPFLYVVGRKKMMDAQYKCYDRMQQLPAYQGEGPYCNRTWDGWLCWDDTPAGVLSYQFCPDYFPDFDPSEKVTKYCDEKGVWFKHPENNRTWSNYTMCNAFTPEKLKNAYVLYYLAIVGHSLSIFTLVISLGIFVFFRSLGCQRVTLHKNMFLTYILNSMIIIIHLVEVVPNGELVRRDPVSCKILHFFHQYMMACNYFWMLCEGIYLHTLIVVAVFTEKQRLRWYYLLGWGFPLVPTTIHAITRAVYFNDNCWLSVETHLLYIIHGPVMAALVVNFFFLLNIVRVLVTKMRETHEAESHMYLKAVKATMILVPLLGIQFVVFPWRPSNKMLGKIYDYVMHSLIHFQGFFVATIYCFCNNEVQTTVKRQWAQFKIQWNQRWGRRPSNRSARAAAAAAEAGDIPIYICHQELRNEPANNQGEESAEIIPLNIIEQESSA
T1 sequence (O60894 27-148): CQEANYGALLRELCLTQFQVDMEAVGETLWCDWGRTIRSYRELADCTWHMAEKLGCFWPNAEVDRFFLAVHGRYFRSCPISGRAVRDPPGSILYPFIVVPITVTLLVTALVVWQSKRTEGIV
Sequence of AMY_(1(a)) receptor (human HA-tagged CT (a) receptor with human myc-tagged RAMP1) (human) (O60894 whole entry, looked up): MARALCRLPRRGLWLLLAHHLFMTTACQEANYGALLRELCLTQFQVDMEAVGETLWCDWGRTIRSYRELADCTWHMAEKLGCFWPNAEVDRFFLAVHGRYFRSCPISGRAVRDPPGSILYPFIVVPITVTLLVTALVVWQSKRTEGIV
T2 sequence (Q16602 23-461): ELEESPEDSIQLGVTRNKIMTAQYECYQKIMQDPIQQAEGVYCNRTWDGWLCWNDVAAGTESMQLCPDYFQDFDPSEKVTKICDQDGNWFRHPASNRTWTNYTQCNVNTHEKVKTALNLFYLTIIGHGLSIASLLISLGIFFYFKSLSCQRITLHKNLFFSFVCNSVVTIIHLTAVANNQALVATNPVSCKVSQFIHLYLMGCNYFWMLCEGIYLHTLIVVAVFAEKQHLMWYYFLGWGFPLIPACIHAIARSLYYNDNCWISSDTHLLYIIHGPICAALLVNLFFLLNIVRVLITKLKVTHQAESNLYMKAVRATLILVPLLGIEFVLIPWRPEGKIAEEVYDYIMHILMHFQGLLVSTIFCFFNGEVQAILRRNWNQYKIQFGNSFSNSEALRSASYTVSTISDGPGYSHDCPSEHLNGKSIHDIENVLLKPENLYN
T2 sequence (O60894 27-148): as the sequence (O60894 27-148) above
T3 sequence (Q16602 23-461, chain 1 of 2): as the sequence (Q16602 23-461) above
T3 sequence (O60894 27-148, chain 2 of 2): as the sequence (O60894 27-148) above

As to `CC(C)C[C@H](NC(=O)CNC(=O)[C@H](C)NC(=O)[C@H](CC(C)C)NC(=O)[C@H](CCCNC(=N)N)NC(=O)[C@H](Cc1c[nH]cn1)NC(=O)[C@@H](NC(=O)[C@@H](NC(=O)[C@@H]1CSSC[C@H](NC(=O)[C@H](C)N)C(=O)N[C@@H](CC(=O)O)C(=O)N[C@@H](C)C(=O)N[C@@H](C)C(=O)N[C@@H]([C@@H](C)O)C(=O)N1)C(C)C)[C@@H](C)O)C(=O)N[C@@H](CC(C)C)C(=O)N[C@@H](CO)C(=O)N[C@@H](CCCNC(=N)N)C(=O)N[C@@H](CO)C(=O)NCC(=O)NCC(=O)N[C@H](C(=O)N[C@H](C(=O)N[C@@H](CCCCN)C(=O)N[C@@H](CC(N)=O)C(=O)N[C@@H](CC(N)=O)C(=O)N[C@@H](Cc1ccccc1)C(=O)N[C@H](C(=O)N1CCC[C@H]1C(=O)N[C@H](C(=O)N[C@@H](CC(N)=O)C(=O)N[C@H](C(=O)NCC(=O)N[C@@H](CO)C(=O)N[C@@H](CCCCN)C(=O)N[C@@H](C)C(=O)N[C@@H](Cc1ccccc1)C(N)=O)C(C)C)[C@@H](C)O)C(C)C)C(C)C)C(C)C` [[Ala^4]], the “AMY1(a) receptor-stimulated cAMP Emax (% CGRP) CGRP analogue” value in assay [1] (n = 3–6) is listed as 161 ± 45 % CGRP; in assay [1] (n = 3–6, listed as [Ala^6]) it was 42 ± 11 % CGRP; in assay [1] (n = 3–6, listed as [Ala^8]), 143 ± 11 % CGRP; in assay [1] (n = 3–6, listed as [Ala^9]), 89 ± 9 % CGRP. For the same molecule, in assay [2] (AlphaScreen, second SK-N-MC clone, n = 3–4, read-out: pEC50, cAMP, control experiments for cross-compatibility of the two SK-N-MC cell clones (converted)), the EC50 was 26.3 nM and 40.7 nM. Besides, the “cAMP (SK-N-MC) Emax (% CGRP) CGRP analogue” value in assay [2] stood at 100 ± 11 % CGRP; in assay [2] (listed as [Ala^6]), 72 ± 12 % CGRP; in assay [2] (listed as [Ala^8]), 104 ± 8 % CGRP; in assay [2] (listed as [Ala^9]) it was 103 ± 13 % CGRP. In addition, the “β-Arrestin (CHO-K1) Emax (% CGRP) CGRP analogue” value in assay [3] amounted to 73 ± 3 % CGRP; in assay [3] (listed as [Ala^6]), 43 ± 2.0 % CGRP; in assay [3] (listed as [Ala^8]), 81 ± 3 % CGRP; in assay [3] (listed as [Ala^9]) it was 64 ± 3 % CGRP. Moreover, the figures for the “reduction of Emax, β-arrestin 2 translocation” value in assay [3] (listed as [Ala^6]-CGRP) and in assay [3] (listed as [Ala^8]-CGRP) were roughly 60% and 20%, respectively.

B1: [Ala^9]-CGRP (peptide)
chain: ACDTATCVAHRLAGLLSRSGGVVKNNFVPTNVGSKAF-NH2
modifications: disulfide 2-7; N-terminus assumed
SMILES: CC(C)C[C@H](NC(=O)CNC(=O)[C@H](C)NC(=O)[C@H](CC(C)C)NC(=O)[C@H](CCCNC(=N)N)NC(=O)[C@H](Cc1c[nH]cn1)NC(=O)[C@H](C)NC(=O)[C@@H](NC(=O)[C@@H]1CSSC[C@H](NC(=O)[C@H](C)N)C(=O)N[C@@H](CC(=O)O)C(=O)N[C@@H]([C@@H](C)O)C(=O)N[C@@H](C)C(=O)N[C@@H]([C@@H](C)O)C(=O)N1)C(C)C)C(=O)N[C@@H](CC(C)C)C(=O)N[C@@H](CO)C(=O)N[C@@H](CCCNC(=N)N)C(=O)N[C@@H](CO)C(=O)NCC(=O)NCC(=O)N[C@H](C(=O)N[C@H](C(=O)N[C@@H](CCCCN)C(=O)N[C@@H](CC(N)=O)C(=O)N[C@@H](CC(N)=O)C(=O)N[C@@H](Cc1ccccc1)C(=O)N[C@H](C(=O)N1CCC[C@H]1C(=O)N[C@H](C(=O)N[C@@H](CC(N)=O)C(=O)N[C@H](C(=O)NCC(=O)N[C@@H](CO)C(=O)N[C@@H](CCCCN)C(=O)N[C@@H](C)C(=O)N[C@@H](Cc1ccccc1)C(N)=O)C(C)C)[C@@H](C)O)C(C)C)C(C)C)C(C)C
B1: in assay [4], the “Emax (% CGRP), cAMP production in SK-N-MC cells” value came to 103 % CGRP; the “Emax (% CGRP), β-arrestin 2 translocation in CHO-K1 cells expressing the human CGRP receptor” value was determined as 64 % CGRP; the “pEC50, cAMP production in SK-N-MC cells” value turned out to be 7.3; the “pEC50, β-arrestin 2 translocation in CHO-K1 cells expressing the human CGRP receptor” value came out at 8.23. In addition, in assay [5], the Emax (% CGRP), cAMP production in Cos 7 cells with the AMY (1(a)) receptor was determined as 89 % CGRP and the pEC50, cAMP production in Cos 7 cells with the AMY (1(a)) receptor was 8.21.

B2: [Ala^8]-CGRP (peptide)
chain: ACDTATCATHRLAGLLSRSGGVVKNNFVPTNVGSKAF-NH2
modifications: disulfide 2-7; N-terminus assumed
SMILES: CC(C)C[C@H](NC(=O)CNC(=O)[C@H](C)NC(=O)[C@H](CC(C)C)NC(=O)[C@H](CCCNC(=N)N)NC(=O)[C@H](Cc1c[nH]cn1)NC(=O)[C@@H](NC(=O)[C@H](C)NC(=O)[C@@H]1CSSC[C@H](NC(=O)[C@H](C)N)C(=O)N[C@@H](CC(=O)O)C(=O)N[C@@H]([C@@H](C)O)C(=O)N[C@@H](C)C(=O)N[C@@H]([C@@H](C)O)C(=O)N1)[C@@H](C)O)C(=O)N[C@@H](CC(C)C)C(=O)N[C@@H](CO)C(=O)N[C@@H](CCCNC(=N)N)C(=O)N[C@@H](CO)C(=O)NCC(=O)NCC(=O)N[C@H](C(=O)N[C@H](C(=O)N[C@@H](CCCCN)C(=O)N[C@@H](CC(N)=O)C(=O)N[C@@H](CC(N)=O)C(=O)N[C@@H](Cc1ccccc1)C(=O)N[C@H](C(=O)N1CCC[C@H]1C(=O)N[C@H](C(=O)N[C@@H](CC(N)=O)C(=O)N[C@H](C(=O)NCC(=O)N[C@@H](CO)C(=O)N[C@@H](CCCCN)C(=O)N[C@@H](C)C(=O)N[C@@H](Cc1ccccc1)C(N)=O)C(C)C)[C@@H](C)O)C(C)C)C(C)C)C(C)C
As to B2, in assay [6], the pKi stood at 9.42. Moreover, in assay [5], the Emax (% CGRP), cAMP production in Cos 7 cells with the AMY (1(a)) receptor came to 143 % CGRP and the pEC50, cAMP production in Cos 7 cells with the AMY (1(a)) receptor was 8.97.
Take ACDTADCVTHRLAGLLSRSGGVVKNNFVPTNVGSKAF-NH2 (disulfide 2-7) [[Asp^6]-CGRP]: the pKi in assay [6] is 7.5.
For the molecule CCDTATCVTHRLAGLLSRSGGVVKNNFVPTNVGSKAF-NH2 (disulfide 2-7; also: Cys1 Acm protected, removal not given here) [[Cys^1]-CGRP], in assay [4], the “Emax (% CGRP), cAMP production in SK-N-MC cells” value came to 71 % CGRP; the “Emax (% CGRP), β-arrestin 2 translocation in CHO-K1 cells expressing the human CGRP receptor” value turned out to be 60 % CGRP; the “pEC50, cAMP production in SK-N-MC cells” value was found to be 7.7; the “pEC50, β-arrestin 2 translocation in CHO-K1 cells expressing the human CGRP receptor” value came to 8.58. Further, the pKi in assay [6] is 9.55.
Regarding ACDTAKCVTHRLAGLLSRSGGVVKNNFVPTNVGSKAF-NH2 (disulfide 2-7) [[Lys^6]-CGRP], the pKi in assay [6] is 7.76.
On the same count and under the same terms, with ACDTACCVTHRLAGLLSRSGGVVKNNFVPTNVGSKAF-NH2 (disulfide 2-7; also: Cys6 Acm protected, removal not given here) [[Cys^6]-CGRP] the figure was 9.33.

Broadly, the pKi is −log10 of the Ki, conventionally taken in molar units.
